From USRE43497

Columns and labels:
Experiment in all cases: cell-based or functional assay
[1] = target: GAL4-AD (UniProt P04386)
[2] = target: Jab1-AD (GAL4 activation domain fusion with human p38^Jab1 amino acids 20-335) (human) (UniProt Q92905)
[3] = target: SV40-AD

Sequence of GAL4-AD (P04386 768-881 limits assumed): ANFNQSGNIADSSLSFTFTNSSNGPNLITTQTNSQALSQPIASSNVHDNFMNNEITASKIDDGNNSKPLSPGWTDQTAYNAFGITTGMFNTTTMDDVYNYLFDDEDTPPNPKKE
Sequence of Jab1-AD (GAL4 activation domain fusion with human p38^Jab1 amino acids 20-335) (human) (Q92905 20-334 limits assumed): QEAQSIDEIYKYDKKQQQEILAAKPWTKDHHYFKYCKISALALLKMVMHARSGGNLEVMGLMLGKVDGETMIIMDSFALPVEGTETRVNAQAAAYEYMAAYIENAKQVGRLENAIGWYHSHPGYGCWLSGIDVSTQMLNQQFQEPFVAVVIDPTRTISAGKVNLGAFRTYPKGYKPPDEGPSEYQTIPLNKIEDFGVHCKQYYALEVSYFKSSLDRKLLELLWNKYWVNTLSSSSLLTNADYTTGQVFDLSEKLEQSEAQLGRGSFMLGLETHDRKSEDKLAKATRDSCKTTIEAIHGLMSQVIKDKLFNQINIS

Row | beta-galactosidase activity, liquid media assay (yeast two-hybrid) [1] [Miller units] | beta-galactosidase activity, liquid media assay (yeast two-hybrid) [2] [Miller units] | Substance | beta-galactosidase activity, liquid media assay (yeast two-hybrid) [3] [Miller units]
1 | 0.1 | 0.3 | GAL4-BD (from UniProt P04386 1-147) | 
2 |  |  | p53-BD | 99
